Paper PMC5385344, “Large Diversity of Functional Nanobodies from a Camelid Immune Library Revealed by an Alternative Analysis of Next-Generation Sequencing Data” (Frontiers in Immunology, 2017)

B1: 2B10 (VHH)
VHH: EVQLVESGGGLVQAGGSLRLSCATSGISFRLSNMGWYRQAPGKSREFVAEITSGGNWNYADSVKGRFTISRDNAKSTVYLQMNSLKPEDTGVYYCNRLGTPLWGQGTQVTVSS
B2: 11F03 (VHH)
VHH: EVQLVESGGGLVQAGGSLRLSCVVSGIYFRLYTMNWYRQALGKQREYVAMITNDGSTNYGASIKGRFTISRDNAKNTVYLQMNNLNPEDTAVYYCNAHDYWGQGTQVTVSS
B3: KY704063 (VHH)
VHH: EVQLVESGGGLVQPGGSLTLSCVAYGITVPDYPIGWFRQSPGKEREGVSCIRRSGGRIVYSDSAKGRFNTSRDNAENTVYLQMNSLAPEDTAVYYCATKCMVEFGDTTYSDYAGLNYWGKGTLVTVSS
B4: 11G07 (VHH)
VHH: EVQLVESGGGLVQAGGSLRLSCAASGRSFSGDTMGWFLQAPGKEREFVAGINWSSRSTNYADSVKGRFTISRDNAKNTVYLQMNTLKPEDTAVYYCAAGPPSPYIYSRPDLYTYWGQGTQVTVSS
B5: 11G10 (VHH)
VHH: EVQLVESGGGSVQAGGSLRLSCAASGRVAMGWFRQAPGKEREFVAAISASGGSSSYADSVKGRFTISRDSAKSTVYLQMNSLEPEDTAVYYCAARARTLGWVSADVSAYDYWGQGTQVTVSS
B6: 11A09 (VHH)
VHH: EVQLVESGGGLVQPGGSLRLSCAASGFTFSSYWMYWVRQAPGKGLEWVSAVNTGGGTTDYADSVKGRFTISRDNAKDTLYLQMNSLKYEDTAVYYCARDQRRYIRTTYDYHGQGTLVTVSS
B7: 5F06 (VHH)
VHH: EVQLVESGGGLVQAGGSLGLSCAASGRVAMGWFRRPPGQERDFVAAISASGATTYYADSVKGRFTISRDSAKTTVYLQMNSLKPEDTAVYYCAARLSWSSDYRSGGSYEHWGQGTQVTVSS
B8: 11G06 (VHH)
VHH: EVQLVESGGGLVQPGGSLRLSCAASGSIFSVNAMGWYRQAPGKQRELVASMVSGRSPAYADSVKGRFTISRDNAENTVYLQMNSLKPEDTAVYYCNIKGEYYSRSQYNVWGQGTQVTVSS
B9: 8G04 (VHH)
VHH: EVQLVESGGGLVQAGGSLRLSCAASGRTFSVYPMGWFRQAPGKEREFVATISRRGAISYYQDSVKGRFTISRDSANDTVYLQMNSLRPEDTAVYYCAQYKASSSSYTRGRPDEIVYWGQGTQVTVSS
B10: 5B04 (VHH)
VHH: EVQLVKSGGGLVQVGGSLRLSCAASGRTFSSYAMGWFRQAPGKERELVAAINWNGGRTYYADFVKGRFTISRDNAKNTVYLQMNSLKPEDTAVYYCAAGHLTSTGVLHPADYYNWDEYDYWGQGTQVTVSS
B11: 2A02 (VHH)
VHH: EVQLVESGGGTVKAGGSLRLSCAAPRRYHMGWFRQAPGKEREFVTAISSSGGSTSYADSVKGRFTISRDSAKSTVYLQMNSLKPEDTAVYFCAARSGLWMATSTQGHYDYWGQGTQVTVSS
B12: KY704042 (VHH)
VHH: EVQLVESGGGLVQAGGSLRLSCAASGRSFGSYHMGWFRQALGKEREFVAAISSGGGLLDYEDSVKGRFTISRDNAKNTVYLQMNSLTPEDTAVYYCAATARVWGSWFTSDYDYWGQGTLVTVSS
B13: KY704038 (VHH)
VHH: EVQLVESGGGLVQAGGSLRLSCASSGIAFRLRTMDWYRQAPGNQREWVATITSDYSTDYADSVKGRFTISRDNAQNTVYLQMNSLKPEDTAVYYCHAGGVVWGQGTLVTVSS
B14: 5B10 (VHH)
VHH: EVQLVESGGGLVQAGGSLRLSCATSGRYVMGWFRQAPGQEREFVTSISRSGGSTTYADSVKGRFTISRDSAENTVYLQMNSLKPEDTAVYYCAAWSYYGVAYTSTTSPDYWGQGTLVTVSS
B15: 11D08 (VHH)
VHH: EVQLVESGGGLVQPGGSLRLSCAASGFTFSSYWMYWVRQAPGKGLEWVSAISPASGSVDYIDSVKGRFTISRDNAQNTLYLRMNSLKSEDTAIYYCAKDSRRLIRSNYETFGLGTQVTVSS
B16: 2A01 (VHH)
VHH: EVQLVESGGGLVQAGGSLRLSCAASSRTFSTYPMAWFRQAPGKEREFVATISRGGITSYYADSVKGRFTISRDNAKNTVYLQMNSLKPEDTAVYYCAQYKASATAYTRGRPDEIVHWGQGTQVTVSS
B17: KY704065 (VHH)
VHH: EVQLVESGGGLVQAGGSLRLSCAVSNTVFRLRTMDWYRQAPEKRREWVATITSDGSTDYVGAVKGRFTISRDNAKSTMYLQMNNVKPEDTAVYYCYTANFWGQGTLVTVSS
B18: 8B01 (VHH)
VHH: EVQLVESRGGTVQAGGSLRLSCAASGRTFSNYAAGWFRQAPGKEREFVAGISAKGGVTYYVDFVKGRFTISRDNAKNTVYLQMNSLKPEDTAVYYCAADGSYGTILATIAENSRISLLKDWGQGTLVTVSS
B19: KY704041 (VHH)
VHH: EVQLVESGGGLVQAGGSLRLSCAASGRAFSSYAMGWFRQAPGKEREFVAVISGRGGVTYYAASVKGRFTISRDNAKNTVLLQMSSLKPEDTGVYYCAAGPNIGVLTDPAYSGGDWGQGTLVTVSS
B20: 2C01 (VHH)
VHH: EVQLVESGGGLVQAGGSLRLSCAPSERTFRSDVMGWFRQAPGRGREFVAAIAENGDILTRFEGSAKGRFTISRDNANDTVYLQMSSLKPEDTAIYYCAARWGTITTVSHQYHFWGQGTQVTVSS
B21: 8C03 (VHH)
VHH: EVQLVESGGGFVQAGGSLRLSCAASVRIAMGWFRQAPGKEREFVARISASGGSTEYADSVKGRFTISRDSSKSTAYLQMNSLKPEDTAVYYCAARLWNQREYPYWGQGTQVTVSS
B22: 2F12 (VHH)
VHH: EVQLVESGGGLVQAGGSLRLSCAASGSSTYEMGWFRQAPGKEREFVAGINWNGGRTYYADSVKGRFTISRDNAKMTVYLQMNSLKPEDTAAYYCSAAYGLRDAFRMYRSEYPYWGQGTQVTVSS
B23: 2C11 (VHH)
VHH: EVQLVESGGGLVQPGGSLRLSCAASGFTFNYYWMYWVRQRPGKGLEWVSAINTGGGTTDYADSVKGRFTISRDNAKSTLYLQMDSLKSEDTAVYYCAKDRRRLIRSEYDYLGQGTQVTVSS
B24: 2F08 (VHH)
VHH: EVQLVESGGGLVQAGGSLRLSCAASGRYPMGWFCQAPGGEREFVAAISRSGASTYYADSVKGRFTIARDSAKNTVYLEMNSLKPEDTAVYYCAAKENYYGDYGLAQNYDYWGQGTQVTVSS
B25: 2D04 (VHH)
VHH: EVQLVESGGGLVQAGGSLRLSCAASGRIFSVYRVGWFRQAPGKEREIVASINNRNGASTFYADSVKGRFTISRDSAKNTVYLQMRSLRPEDTAVYYCAARDQGTTEYHYWGQGTLVTVSS
B26: KY704039 (VHH)
VHH: EVQLVESGGGLVQAGGSLRLTCAASGNFFNIITMGWFRQAPGKERELVAVDTAGRSISYLDSVKGRFTIVRDNAKNTVILEMNSLTPEDTAVYYCYATGHRSVTGGIYVTWGQGTLVTVSS
B27: 8D02 (VHH)
VHH: EVQLVESGGGLVQTGGSLRLSCAASGLTFSDYAMGWFRQAAGKEREFVGVISWGGRHTYYGDFAKGRFTISRENSKNTVYLQMNSLKPEDTAVYTCARKRGMADIAYTHATSYDYWGQGTQVTVSS
B28: 11B09 (VHH)
VHH: EVQLVESGGGLVQAGGSLRLSCAASGRTFSNYAMGWFRQAPGKERDFVAAIDWSGDSISYENTVKGRFTISRDNAKNTMYLQMNSLKPEDTAVYFCATRSVGGISTLRRRYDYWGQGTLVTVSS
B29: 8E08 (VHH)
VHH: EVQLVESGGGLVQPGGSLRLSCAASGFTLDNHAIGWFRRAPGKERERIGCISSSSGTTAYADSVEGRFTISRDNAKNTVYLQMNSLKPEDTAVYYCAARFQGGFLGCTFAPQTFGYWGQGTQVTVSS
B30: KY704051 (VHH)
VHH: EVQLVESGGGLVQPGGSLRLSCAASGFAFSYYYMYWVRQAPGKGLEWVSRISPGGGTTYYADSVKGRFTISRDNAKNTLYLQMNSLNSEDTAVYYCAKDNRRLIDSGAYDYRGQGTLVTVSS

Target: Recombinant extracellular domain of human RON (rhRON) (human, UniProt Q04912)
Sequence (Q04912 25-957): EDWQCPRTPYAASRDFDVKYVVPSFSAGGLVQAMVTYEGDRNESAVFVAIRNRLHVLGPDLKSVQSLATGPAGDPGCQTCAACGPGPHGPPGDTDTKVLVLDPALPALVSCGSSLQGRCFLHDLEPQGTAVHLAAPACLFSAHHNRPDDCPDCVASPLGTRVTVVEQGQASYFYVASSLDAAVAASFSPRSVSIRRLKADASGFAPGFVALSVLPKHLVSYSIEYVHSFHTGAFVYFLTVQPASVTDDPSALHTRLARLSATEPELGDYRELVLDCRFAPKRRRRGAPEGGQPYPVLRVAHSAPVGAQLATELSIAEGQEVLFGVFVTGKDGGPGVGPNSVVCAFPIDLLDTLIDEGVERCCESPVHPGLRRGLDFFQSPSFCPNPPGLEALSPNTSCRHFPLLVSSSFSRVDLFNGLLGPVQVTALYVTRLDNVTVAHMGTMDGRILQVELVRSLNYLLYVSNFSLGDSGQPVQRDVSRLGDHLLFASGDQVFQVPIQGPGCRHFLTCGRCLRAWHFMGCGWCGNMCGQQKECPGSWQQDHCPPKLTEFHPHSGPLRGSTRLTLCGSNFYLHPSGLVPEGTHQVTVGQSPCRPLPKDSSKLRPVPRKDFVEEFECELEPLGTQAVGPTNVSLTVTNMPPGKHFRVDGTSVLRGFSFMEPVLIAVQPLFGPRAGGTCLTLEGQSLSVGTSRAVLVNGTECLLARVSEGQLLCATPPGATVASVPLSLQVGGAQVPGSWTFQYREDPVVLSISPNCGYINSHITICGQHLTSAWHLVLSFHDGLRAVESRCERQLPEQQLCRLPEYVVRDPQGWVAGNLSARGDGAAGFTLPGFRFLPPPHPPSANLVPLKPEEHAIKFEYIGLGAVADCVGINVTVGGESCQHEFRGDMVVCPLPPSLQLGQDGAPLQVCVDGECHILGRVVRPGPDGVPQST

Binding result, binds:
B1
B2
B3
B4
B5
B6
B7
B8
B9
B10
B11
B12
B13
B14
B15
B16
B17
B18
B19
B20
B21
B22
B23
B24
B25
B26
B27
B28
B29

Target: full-length human RON expressed on HEK293T cells (HEK293T-hRON) (Homo sapiens, UniProt Q04912)
Sequence (Q04912 25-1400): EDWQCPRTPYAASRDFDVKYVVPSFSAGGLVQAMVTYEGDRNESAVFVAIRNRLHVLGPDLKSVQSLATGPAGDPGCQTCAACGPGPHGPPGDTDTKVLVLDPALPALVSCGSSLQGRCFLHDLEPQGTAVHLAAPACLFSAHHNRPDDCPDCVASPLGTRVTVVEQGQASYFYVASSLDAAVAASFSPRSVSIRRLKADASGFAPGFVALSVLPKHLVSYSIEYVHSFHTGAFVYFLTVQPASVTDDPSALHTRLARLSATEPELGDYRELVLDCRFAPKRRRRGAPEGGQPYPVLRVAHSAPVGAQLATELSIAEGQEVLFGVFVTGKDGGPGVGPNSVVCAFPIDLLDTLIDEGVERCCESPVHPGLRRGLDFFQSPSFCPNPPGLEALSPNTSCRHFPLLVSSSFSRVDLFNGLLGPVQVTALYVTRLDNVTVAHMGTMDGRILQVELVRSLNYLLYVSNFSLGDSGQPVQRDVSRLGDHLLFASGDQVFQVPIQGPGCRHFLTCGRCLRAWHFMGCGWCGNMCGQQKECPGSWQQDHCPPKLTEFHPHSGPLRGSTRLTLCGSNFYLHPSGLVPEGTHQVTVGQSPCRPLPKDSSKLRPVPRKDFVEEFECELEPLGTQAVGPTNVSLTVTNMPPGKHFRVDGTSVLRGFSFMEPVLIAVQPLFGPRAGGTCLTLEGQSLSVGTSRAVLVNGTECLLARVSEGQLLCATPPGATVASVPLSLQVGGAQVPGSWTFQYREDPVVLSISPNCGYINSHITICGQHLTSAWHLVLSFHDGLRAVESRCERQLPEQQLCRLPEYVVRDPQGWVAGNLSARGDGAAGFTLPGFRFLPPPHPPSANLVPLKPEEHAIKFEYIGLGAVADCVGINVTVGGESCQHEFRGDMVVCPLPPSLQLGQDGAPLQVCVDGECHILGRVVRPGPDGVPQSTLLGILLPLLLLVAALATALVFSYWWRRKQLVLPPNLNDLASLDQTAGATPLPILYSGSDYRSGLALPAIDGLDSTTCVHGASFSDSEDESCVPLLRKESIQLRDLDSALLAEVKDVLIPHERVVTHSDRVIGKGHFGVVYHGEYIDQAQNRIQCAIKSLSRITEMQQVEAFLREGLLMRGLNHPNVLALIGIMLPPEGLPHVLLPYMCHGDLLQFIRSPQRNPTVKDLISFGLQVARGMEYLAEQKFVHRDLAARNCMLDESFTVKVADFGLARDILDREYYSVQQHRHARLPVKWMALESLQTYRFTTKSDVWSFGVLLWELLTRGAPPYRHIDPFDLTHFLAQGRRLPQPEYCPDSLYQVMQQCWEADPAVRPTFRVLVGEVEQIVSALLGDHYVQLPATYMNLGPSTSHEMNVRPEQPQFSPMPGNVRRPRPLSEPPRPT

Binding result, binds:
B1
B2
B4
B5
B6
B7
B8
B9
B10
B11
B12
B13
B14
B15
B16
B18
B19
B20
B21
B22
B23
B24
B30
B25
B26
B27
B28
B29
